According to the supplement of paper PMC10899765:

Columns and labels:
Conditions in all cases: 20 nM; 72 h
[1] = system: MCF10A; assay: 5+ nucleoli phenotype percent effect (relative to siNT 0% and siKIF11 100%); higher = more cells with five or more nucleoli
Method: (§1)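 After 72 h, cells were fixed and stained with Hoechst and anti-fibrillarin, and nucleoli per nucleus were counted with CellProfiler. Values are plate-adjusted percent effect for the one-nucleolus and 5+ nucleoli phenotypes, normalised to siNT (0%) and to the positive controls siNOL11 or siKIF11 (100%), as the mean of biological triplicates. Percent viability is the nuclei count relative to siNT.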

[2] = system: MCF10A; assay: percent viability (nuclei count relative to siNT); higher = more viable cells
Method: as §1

[3] = system: MCF10A; assay: one-nucleolus phenotype percent effect (relative to siNT 0% and siNOL11 100%); higher = more cells with one nucleolus (ribosome biogenesis inhibition)
Method: as §1

| Sequence | 5+ nucleoli phenotype percent effect [1] [%] | percent viability [2] [%] | one-nucleolus phenotype percent effect [3] [%] |
| --- | --- | --- | --- |
| CCAGGAGGCGGAGGAGGUGGAG [hsa-miR-4459] | -0.862 | 64.6 | 9.39 |
| CCAGGCUCUGCAGUGGGA [hsa-miR-3155b] | 29.5 | 65.5 | -8.6 |
| CCAGGCUCUGCAGUGGGAACU [hsa-miR-3155a] | 30.4 | 32.5 | -2.13 |
| CCAGGGAGGCUGGUUUGGAGGA [hsa-miR-6754-5p] | -21.9 | 38 | 22.6 |
| CCAGGGGGAUGGGCGAGCUUGGG [hsa-miR-6798-5p] | 13.9 | 77.9 | -16.7 |
| CCAGUAUUAACUGUGCUGCUGA [hsa-miR-16-1-3p] | -19.3 | 85.1 | 7.96 |
| CCAGUCCUGUGCCUGCCGCCU [hsa-miR-1910] | 6.81 | 100 | 3.9 |
| CCAGUGACUGAGCUGGAGCCA [hsa-miR-5190] | -11.4 | 31.7 | 29.3 |
| CCAGUGGGGCUGCUGUUAUCUG [hsa-miR-194-3p] | 10.5 | 138 | -11.8 |
| CCAGUGUGGCUCAGCGAG [hsa-miR-4302] | -22.9 | 28.8 | 18.9 |
| CCAGUUACCGCUUCCGCUACCGC [hsa-miR-935] | -23.4 | 59 | 15.8 |
| CCAGUUUUCCCAGGAUU [hsa-miR-4328] | 62.6 | 108 | -38.7 |
| CCAUGAAGCAGUGGGUAGGAGGAC [hsa-miR-8060] | 14.9 | 43.2 | 6.65 |
| CCAUGGAUCUCCAGGUGGGU [hsa-miR-490-5p] | 16.2 | 63.5 | 0.865 |
| CCCAAUACACGGUCGACCUCUU [hsa-miR-323b-3p] | 68.7 | 77.6 | -23.7 |
| CCCAGAUAAUGGCACUCUCAA [hsa-miR-488-5p] | 32.8 | 50.9 | -5.8 |
| CCCAGCAGGACGGGAGCG [hsa-miR-4530] | 43.3 | 111 | -26.2 |
| CCCAGGGCUUGGAGUGGGGCAAGGUU [hsa-miR-4685-5p] | 15 | 69.2 | 9.96 |
| CCCAGUGUUCAGACUACCUGUUC [hsa-miR-199a-5p] | -30.3 | 68.8 | 4.51 |
| CCCAGUGUUUAGACUAUCUGUUC [hsa-miR-199b-5p] | 26.5 | 170 | -14.4 |

| Sequence | 5+ nucleoli phenotype percent effect [1] [%] | percent viability [2] [%] | one-nucleolus phenotype percent effect [3] [%] |
| --- | --- | --- | --- |
| CCCAUCACCUUUCCGUCUCCCCU [hsa-miR-6884-3p] | 50.9 | 70.3 | -25.5 |
| CCCAUGCCUCCUGCCGCGGUC [hsa-miR-6872-3p] | -8.71 | 48 | 17.4 |
| CCCCAGGGCGACGCGGCGGG [hsa-miR-1915-3p] | 42.5 | 87.8 | -13.1 |
| CCCCGCCACCGCCUUGG [hsa-miR-4258] | 29.4 | 54.5 | -17.4 |
| CCCCGGGAACGUCGAGACUGGAGC [hsa-miR-1247-3p] | -15.3 | 17.1 | 41.2 |
| CCCCGGGGAGCCCGGCG [hsa-miR-4532] | 45.2 | 148 | -24.8 |
| CCCCGGUGUUGGGGCGCGUCUGC [hsa-miR-4783-3p] | 13.9 | 49.5 | -13 |
| CCCCUGGGCCGGCCUUGG [hsa-miR-4292] | 31.4 | 26.6 | 4.18 |
| CCCCUGGGGCUGGGCAGGCGGA [hsa-miR-6791-5p] | 45.9 | 107 | -13.7 |
| CCCGCAGGUGAGAUGAGGGCU [hsa-miR-6886-5p] | -23.1 | 28.8 | 9.43 |
| CCCGGACAGGCGUUCGUGCGACGU [hsa-miR-3687] | 26.3 | 86.1 | -20.6 |
| CCCGGAGCCAGGAUGCAGCUC [hsa-miR-1203] | 4.95 | 68.6 | -10.2 |
| CCCGGCCGGAACGCCGCACU [hsa-miR-6850-3p] | 23.1 | 65.7 | -20.3 |
| CCCUCAUCUUCCCCUCCUUUC [hsa-miR-6891-3p] | -10.8 | 35.9 | 36.8 |
| CCCUCUCUGGCUCCUCCCCAAA [hsa-miR-4723-3p] | 50.7 | 114 | -23.7 |
| CCCUCUCUGUCCCACCCAUAG [hsa-miR-6769b-3p] | 91.5 | 73.7 | -27.6 |
| CCCUGAGACCCUAACCUUAA [hsa-miR-4324] | 38.6 | 84 | -27 |
| CCCUGCUGCCUUCACCUGCCAG [hsa-miR-6893-3p] | -2.09 | 50.3 | -5.77 |
| CCCUGGGCCUCUGCUCCCCAG [hsa-miR-939-3p] | -13 | 31.6 | 17.1 |
| CCCUGGGGUUCUGAGGACAUG [hsa-miR-6852-5p] | 29 | 32.3 | 8.28 |

| Sequence | 5+ nucleoli phenotype percent effect [1] [%] | percent viability [2] [%] | one-nucleolus phenotype percent effect [3] [%] |
| --- | --- | --- | --- |
| CCCUGUGCCCGGCCCACUUCUG [hsa-miR-1914-5p] | 1.43 | 90.2 | -13.8 |
| CCCUGUUCUAUGCCCUGAGGGA [hsa-miR-1266-3p] | 47.8 | 90.7 | -19.3 |
| CCCUUCCCUCACUCUUCUCUCAG [hsa-miR-6734-3p] | 13.3 | 44.4 | -3.15 |
| CCCUUGGGUCUGAUGGGGUAG [hsa-miR-3189-3p] | -6.22 | 25.3 | 15.4 |
| CCGCCUGAGCUAGCUGUGG [hsa-miR-6078] | 38.1 | 89.3 | -22.1 |
| CCGCCUUCUCUCCUCCCCCAG [hsa-miR-6880-3p] | 65.6 | 117 | -31.4 |
| CCGCUCUUCCCCUGACCCCAG [hsa-miR-6812-3p] | 54.6 | 163 | -35.5 |
| CCGCUUUCUGAGCUGGAC [hsa-miR-4315] | -27.2 | 25.2 | 34.8 |
| CCGGCAUGUCCAGGGCA [hsa-miR-4304] | 3.17 | 25.4 | 14.3 |
| CCGGCCGCCGGCUCCGCCCCG [hsa-miR-1908-3p] | 44.4 | 96 | -14.6 |
| CCGGGAGAAGGAGGUGGCCUGG [hsa-miR-6746-5p] | 61.4 | 50.3 | -15.9 |
| CCGGGGCAGAUUGGUGUAGGGUG [hsa-miR-5090] | 24.7 | 82 | -10.2 |
| CCGGUCCCAGGAGAACCUGCAGA [hsa-miR-4746-5p] | 8.72 | 45.1 | 11.9 |
| CCGGUUCCAGUCCCUGGAG [hsa-miR-6070] | -6.27 | 55.6 | 16.9 |
| CCGUGUUUCCCCCACGCUUU [hsa-miR-3676-3p] | -17.2 | 72.3 | 4.15 |
| CCUAAUUUGAACACCUUCGGUA [hsa-miR-4735-5p] | 8.71 | 80.8 | -11.3 |
| CCUAGAAACUGUAAACUUAGUC [hsa-miR-8067] | 47.4 | 108 | -35.3 |
| CCUAGACACCUCCAGUUC [hsa-miR-4305] | -1.06 | 39.4 | -1.35 |
| CCUAGUAGGUGUCCAGUAAGUGU [hsa-miR-325] | 25 | 58 | -12.1 |
| CCUAUUCUUGAUUACUUGUUUC [hsa-miR-26a-2-3p] | 2.15 | 138 | -7.71 |
